Source: patent publication US20250076311A1 (Chugai, published 2025)
Each block holds one binder with its values, some of them ahead of it.

How the values were obtained:
[1] = molecular target: T1, soluble mouse FcγRII, His-tagged (mouse, UniProt P08101 30-210, limits assumed); assay: SPR, mouse FcγRII captured via His-tag, antigen-antibody complex injected, pH 7.4, 25 C
T1 construct: Captured on the chip through an anti-His antibody
T1 sequence (looked up): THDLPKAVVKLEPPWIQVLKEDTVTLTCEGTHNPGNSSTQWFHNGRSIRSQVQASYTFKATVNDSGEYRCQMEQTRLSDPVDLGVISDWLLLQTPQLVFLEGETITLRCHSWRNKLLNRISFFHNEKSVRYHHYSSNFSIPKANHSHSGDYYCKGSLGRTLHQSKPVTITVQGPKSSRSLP
Procedure: Regarding the produced Fc region variant-containing antibodies, binding assays between soluble mouse FcγRII and antigen-antibody complexes were performed using BIACORE® T200 (GE Healthcare). Soluble mouse FcγRII was produced in the form of a His-tagged molecule by a method known to those skilled in the art. An appropriate amount of an anti-His antibody was fixed onto Sensor chip CM5 (GE Healthcare) by the amine coupling method using a His capture kit (GE Healthcare) to capture mouse FcγRII. Next, an antibody-antigen complex and a running buffer (as a reference solution) were injected, and interaction was allowed to take place with the mouse FcγRII captured onto the sensor chip. 20 mM N-(2-Acetamido)-2-aminoethanesulfonic acid, 150 mM NaCl, 1.2 mM CaCl₂), and 0.05% (w/v) TWEEN® 20 at pH7.4 was used as the running buffer, and the respective buffer was also used to dilute the soluble mouse FcγRII. To regenerate the sensor chip, 10 mM glycine-HCl at pH1.5 was used. All measurements were carried out at 25° C. […] To calculate the parameters, the BIACORE® T100 Evaluation Software (GE Healthcare) was used.

[2] = molecular target: T2, human FcγRIIb constitutively expressed on MDCK cells (human, UniProt P31994 43-310); assay: cell-based or functional assay
T2 sequence (looked up): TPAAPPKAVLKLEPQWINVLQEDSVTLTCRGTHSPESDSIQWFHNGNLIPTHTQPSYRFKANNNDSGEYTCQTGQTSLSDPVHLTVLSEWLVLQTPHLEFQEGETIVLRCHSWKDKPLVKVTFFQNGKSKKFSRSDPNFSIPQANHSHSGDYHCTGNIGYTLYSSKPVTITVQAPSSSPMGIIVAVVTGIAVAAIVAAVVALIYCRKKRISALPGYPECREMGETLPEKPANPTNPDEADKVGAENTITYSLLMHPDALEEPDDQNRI

B1: MS1032LO06-P1375m (antibody, human IgG1, kappa, name in EU numbering)
heavy: not shown
light: DIVMTQSPATLSLSPGERATLSCTSSQSVYHANWLSWFQQKPGQPPKLLIYWASTLAYGVPSRFSGSGSGTDFTLTISSLQPEDAATYYCAGGYGGGRYAFGQGTKVEIKRTVAAPSVFIFPPSDEQLKSGTASVVCLLNNFYPREAKVQWKVDNALQSGNSQESVTEQDSKDSTYSLSSTLTLSKADYEKHKVYACEVTHQGLSSPVTKSFNRGEC
notes: also called M103205H795-P1375m; copies: 2 + 2
- biacore IC binding (relative, SG1 = 1.00) [1]: 1.21 relative to SG1
- celluar uptake (labelled human latent myostatin taken up as antigen-antibody complex) [2]: 3.43 relative to SG1 = 1.00

B2: M103205H795-P1501m/M103202L889-SK1 (antibody, human IgG1, kappa, name in EU numbering)
heavy: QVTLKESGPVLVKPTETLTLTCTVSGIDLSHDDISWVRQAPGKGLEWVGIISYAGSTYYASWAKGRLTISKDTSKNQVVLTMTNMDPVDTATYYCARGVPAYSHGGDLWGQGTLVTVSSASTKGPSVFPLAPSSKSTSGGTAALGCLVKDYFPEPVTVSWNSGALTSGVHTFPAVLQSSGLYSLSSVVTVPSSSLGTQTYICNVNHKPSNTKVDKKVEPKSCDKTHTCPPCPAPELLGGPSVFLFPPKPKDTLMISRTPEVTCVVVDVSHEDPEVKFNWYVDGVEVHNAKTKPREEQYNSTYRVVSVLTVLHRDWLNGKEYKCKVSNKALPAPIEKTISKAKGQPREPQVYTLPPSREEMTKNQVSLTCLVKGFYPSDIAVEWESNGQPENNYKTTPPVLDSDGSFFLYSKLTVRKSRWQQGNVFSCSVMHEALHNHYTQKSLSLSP
light: B1 light
notes: copies: 2 + 2
- biacore IC binding (relative, SG1 = 1.00) [1]: 1.82 relative to SG1
- celluar uptake (labelled human latent myostatin taken up as antigen-antibody complex) [2]: 2.4 relative to SG1 = 1.00

B3: M103205H795-P1484m/M103202L889-SK1 (antibody, human IgG1, kappa, name in EU numbering)
heavy: not shown
light: B1 light
notes: copies: 2 + 2
- biacore IC binding (relative, SG1 = 1.00) [1]: 1.33 relative to SG1
- celluar uptake (labelled human latent myostatin taken up as antigen-antibody complex) [2]: 0 relative to SG1 = 1.00

B5: M103205H795-P1491m/M103202L889-SK1 (antibody, human IgG1, kappa, name in EU numbering)
heavy: not shown
light: B1 light
notes: copies: 2 + 2
- biacore IC binding (relative, SG1 = 1.00) [1]: 1.05 relative to SG1
- celluar uptake (labelled human latent myostatin taken up as antigen-antibody complex) [2]: 1.37 relative to SG1 = 1.00

B6: M103205H795-P1528m/M103202L889-SK1 (antibody, human IgG1, kappa, name in EU numbering)
heavy: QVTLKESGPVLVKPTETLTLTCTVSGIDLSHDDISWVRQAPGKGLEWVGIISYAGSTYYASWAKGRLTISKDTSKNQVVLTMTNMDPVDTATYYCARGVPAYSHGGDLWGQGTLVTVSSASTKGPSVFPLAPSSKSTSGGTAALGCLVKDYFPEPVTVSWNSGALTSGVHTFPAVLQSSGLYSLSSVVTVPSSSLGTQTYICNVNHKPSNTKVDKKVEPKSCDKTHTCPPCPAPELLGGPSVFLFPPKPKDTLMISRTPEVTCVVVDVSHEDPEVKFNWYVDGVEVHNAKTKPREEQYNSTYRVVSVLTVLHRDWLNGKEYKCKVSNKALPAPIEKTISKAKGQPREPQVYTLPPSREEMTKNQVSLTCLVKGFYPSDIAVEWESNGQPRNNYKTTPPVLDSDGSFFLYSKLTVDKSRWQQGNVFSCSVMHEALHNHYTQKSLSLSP
light: B1 light
notes: copies: 2 + 2
- biacore IC binding (relative, SG1 = 1.00) [1]: 1.12 relative to SG1
- celluar uptake (labelled human latent myostatin taken up as antigen-antibody complex) [2]: 3.02 relative to SG1 = 1.00

B8: M103205H795-P1495m/M103202L889-SK1 (antibody, human IgG1, kappa, name in EU numbering)
heavy: not shown
light: B1 light
notes: copies: 2 + 2
- biacore IC binding (relative, SG1 = 1.00) [1]: 1.3 relative to SG1
- celluar uptake (labelled human latent myostatin taken up as antigen-antibody complex) [2]: 1.76 relative to SG1 = 1.00

B9: M103205H795-P1492m/M103202L889-SK1 (antibody, human IgG1, kappa, name in EU numbering)
heavy: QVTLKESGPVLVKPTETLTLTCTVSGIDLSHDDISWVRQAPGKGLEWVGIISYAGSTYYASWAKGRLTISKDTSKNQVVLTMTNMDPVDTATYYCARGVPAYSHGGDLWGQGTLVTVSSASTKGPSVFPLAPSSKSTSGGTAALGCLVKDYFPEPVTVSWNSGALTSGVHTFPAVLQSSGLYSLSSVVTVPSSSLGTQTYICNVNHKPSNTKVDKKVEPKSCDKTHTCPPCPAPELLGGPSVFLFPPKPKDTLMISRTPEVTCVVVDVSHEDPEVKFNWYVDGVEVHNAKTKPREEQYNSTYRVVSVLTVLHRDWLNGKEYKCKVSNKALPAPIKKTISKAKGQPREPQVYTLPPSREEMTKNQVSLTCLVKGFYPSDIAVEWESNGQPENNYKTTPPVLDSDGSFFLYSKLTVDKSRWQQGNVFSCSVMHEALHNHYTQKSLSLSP
light: B1 light
notes: copies: 2 + 2
- biacore IC binding (relative, SG1 = 1.00) [1]: 0.88 relative to SG1
- celluar uptake (labelled human latent myostatin taken up as antigen-antibody complex) [2]: 1.13 relative to SG1 = 1.00

B11: M103205H795-P1523m/M103202L889-SK1 (antibody, human IgG1, kappa, name in EU numbering)
heavy: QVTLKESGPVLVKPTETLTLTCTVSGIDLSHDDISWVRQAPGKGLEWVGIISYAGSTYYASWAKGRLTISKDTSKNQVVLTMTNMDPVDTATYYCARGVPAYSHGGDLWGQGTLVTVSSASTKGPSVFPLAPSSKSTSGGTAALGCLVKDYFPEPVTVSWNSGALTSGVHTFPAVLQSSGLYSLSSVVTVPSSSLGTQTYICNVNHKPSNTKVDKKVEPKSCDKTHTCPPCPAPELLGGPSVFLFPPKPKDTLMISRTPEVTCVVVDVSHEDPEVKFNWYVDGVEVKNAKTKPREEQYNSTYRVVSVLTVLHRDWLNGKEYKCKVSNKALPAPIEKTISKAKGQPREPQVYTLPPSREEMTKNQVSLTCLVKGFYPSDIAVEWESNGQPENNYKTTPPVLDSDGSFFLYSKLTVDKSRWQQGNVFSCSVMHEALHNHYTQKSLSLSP
light: B1 light
notes: copies: 2 + 2
- biacore IC binding (relative, SG1 = 1.00) [1]: 1.19 relative to SG1
- celluar uptake (labelled human latent myostatin taken up as antigen-antibody complex) [2]: 1.91 relative to SG1 = 1.00

B15: M103205H795-P1532m/M103202L889-SK1 (antibody, human IgG1, kappa, name in EU numbering)
heavy: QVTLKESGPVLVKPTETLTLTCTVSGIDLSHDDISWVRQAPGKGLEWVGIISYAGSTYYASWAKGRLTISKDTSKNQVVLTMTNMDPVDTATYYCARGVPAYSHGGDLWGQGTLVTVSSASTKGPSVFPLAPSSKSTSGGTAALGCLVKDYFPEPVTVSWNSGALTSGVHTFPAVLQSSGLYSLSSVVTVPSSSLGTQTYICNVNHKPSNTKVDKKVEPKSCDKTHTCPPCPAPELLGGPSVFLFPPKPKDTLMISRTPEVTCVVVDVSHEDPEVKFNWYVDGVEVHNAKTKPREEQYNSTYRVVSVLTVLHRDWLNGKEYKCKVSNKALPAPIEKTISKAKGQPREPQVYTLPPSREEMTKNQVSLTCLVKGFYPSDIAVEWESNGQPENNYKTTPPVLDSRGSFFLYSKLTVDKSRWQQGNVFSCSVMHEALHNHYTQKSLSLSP
light: B1 light
notes: copies: 2 + 2
- biacore IC binding (relative, SG1 = 1.00) [1]: 1.23 relative to SG1
- celluar uptake (labelled human latent myostatin taken up as antigen-antibody complex) [2]: 4.16 relative to SG1 = 1.00

B17: M103205H795-P1496m/M103202L889-SK1 (antibody, human IgG1, kappa, name in EU numbering)
heavy: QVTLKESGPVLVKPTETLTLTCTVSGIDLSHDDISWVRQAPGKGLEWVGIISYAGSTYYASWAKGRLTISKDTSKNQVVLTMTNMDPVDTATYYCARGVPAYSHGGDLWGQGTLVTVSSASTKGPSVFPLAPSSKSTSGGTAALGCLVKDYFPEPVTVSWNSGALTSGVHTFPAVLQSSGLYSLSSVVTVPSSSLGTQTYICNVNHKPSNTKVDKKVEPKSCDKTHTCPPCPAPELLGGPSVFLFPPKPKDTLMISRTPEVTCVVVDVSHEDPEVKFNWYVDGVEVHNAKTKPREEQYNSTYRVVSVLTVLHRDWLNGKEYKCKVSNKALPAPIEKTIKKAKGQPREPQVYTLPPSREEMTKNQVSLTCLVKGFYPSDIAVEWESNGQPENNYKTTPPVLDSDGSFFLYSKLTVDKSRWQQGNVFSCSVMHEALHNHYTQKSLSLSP
light: B1 light
notes: copies: 2 + 2
- biacore IC binding (relative, SG1 = 1.00) [1]: 1.28 relative to SG1
- celluar uptake (labelled human latent myostatin taken up as antigen-antibody complex) [2]: 1.69 relative to SG1 = 1.00

The remaining lines, values ahead:

- biacore IC binding (relative, SG1 = 1.00) [1]: 1.16 relative to SG1
- celluar uptake (labelled human latent myostatin taken up as antigen-antibody complex) [2]: 2.05 relative to SG1 = 1.00
B4: M103205H795-P1536m/M103202L889-SK1 (antibody, human IgG1, kappa, name in EU numbering)
heavy: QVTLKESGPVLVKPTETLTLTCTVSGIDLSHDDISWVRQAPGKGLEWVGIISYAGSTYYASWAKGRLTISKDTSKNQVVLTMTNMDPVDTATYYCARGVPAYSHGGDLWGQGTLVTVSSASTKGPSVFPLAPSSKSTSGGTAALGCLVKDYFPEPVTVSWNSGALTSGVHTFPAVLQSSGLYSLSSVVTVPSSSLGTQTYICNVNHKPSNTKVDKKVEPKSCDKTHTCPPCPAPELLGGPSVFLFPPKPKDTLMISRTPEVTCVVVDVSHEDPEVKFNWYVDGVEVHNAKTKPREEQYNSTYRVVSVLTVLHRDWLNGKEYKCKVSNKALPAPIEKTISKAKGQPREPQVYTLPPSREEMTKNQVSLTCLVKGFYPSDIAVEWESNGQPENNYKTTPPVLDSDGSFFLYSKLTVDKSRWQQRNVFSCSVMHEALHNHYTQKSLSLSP
light: B1 light
notes: copies: 2 + 2

- biacore IC binding (relative, SG1 = 1.00) [1]: 1.24 relative to SG1
- celluar uptake (labelled human latent myostatin taken up as antigen-antibody complex) [2]: 2.13 relative to SG1 = 1.00
B7: M103205H795-P1522m/M103202L889-SK1 (antibody, human IgG1, kappa, name in EU numbering)
heavy: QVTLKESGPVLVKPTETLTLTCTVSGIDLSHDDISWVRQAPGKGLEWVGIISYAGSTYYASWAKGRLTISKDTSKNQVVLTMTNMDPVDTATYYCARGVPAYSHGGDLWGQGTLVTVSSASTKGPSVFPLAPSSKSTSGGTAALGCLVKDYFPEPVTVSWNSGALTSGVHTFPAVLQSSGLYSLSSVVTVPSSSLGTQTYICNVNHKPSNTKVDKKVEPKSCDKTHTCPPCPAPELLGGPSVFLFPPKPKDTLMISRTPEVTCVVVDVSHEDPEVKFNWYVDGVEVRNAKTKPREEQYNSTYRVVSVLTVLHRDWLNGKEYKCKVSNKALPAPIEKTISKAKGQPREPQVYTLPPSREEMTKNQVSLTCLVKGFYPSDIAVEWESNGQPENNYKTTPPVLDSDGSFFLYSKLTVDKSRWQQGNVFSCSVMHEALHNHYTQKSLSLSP
light: B1 light
notes: copies: 2 + 2

- biacore IC binding (relative, SG1 = 1.00) [1]: 1.11 relative to SG1
- celluar uptake (labelled human latent myostatin taken up as antigen-antibody complex) [2]: 2.49 relative to SG1 = 1.00
B10: M103205H795-P1535m/M103202L889-SK1 (antibody, human IgG1, kappa, name in EU numbering)
heavy: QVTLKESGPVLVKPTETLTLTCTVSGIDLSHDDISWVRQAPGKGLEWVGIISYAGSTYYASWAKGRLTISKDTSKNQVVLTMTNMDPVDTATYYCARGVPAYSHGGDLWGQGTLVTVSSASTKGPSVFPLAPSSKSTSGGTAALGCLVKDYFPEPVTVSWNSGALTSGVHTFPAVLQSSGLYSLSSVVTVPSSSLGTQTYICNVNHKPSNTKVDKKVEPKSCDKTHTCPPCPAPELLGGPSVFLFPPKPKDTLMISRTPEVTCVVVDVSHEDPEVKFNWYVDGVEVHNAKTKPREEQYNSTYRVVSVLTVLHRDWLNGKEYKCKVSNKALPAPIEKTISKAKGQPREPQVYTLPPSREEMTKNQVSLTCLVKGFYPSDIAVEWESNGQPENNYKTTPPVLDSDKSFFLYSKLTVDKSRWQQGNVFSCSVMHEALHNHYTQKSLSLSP
light: B1 light
notes: copies: 2 + 2

- biacore IC binding (relative, SG1 = 1.00) [1]: 1.28 relative to SG1
- celluar uptake (labelled human latent myostatin taken up as antigen-antibody complex) [2]: 1.33 relative to SG1 = 1.00
B12: M103205H795-P1490m/M103202L889-SK1 (antibody, human IgG1, kappa, name in EU numbering)
heavy: not shown
light: B1 light
notes: copies: 2 + 2

- biacore IC binding (relative, SG1 = 1.00) [1]: 1.12 relative to SG1
- celluar uptake (labelled human latent myostatin taken up as antigen-antibody complex) [2]: 3.12 relative to SG1 = 1.00
B13: M103205H795-P1534m/M103202L889-SK1 (antibody, human IgG1, kappa, name in EU numbering)
heavy: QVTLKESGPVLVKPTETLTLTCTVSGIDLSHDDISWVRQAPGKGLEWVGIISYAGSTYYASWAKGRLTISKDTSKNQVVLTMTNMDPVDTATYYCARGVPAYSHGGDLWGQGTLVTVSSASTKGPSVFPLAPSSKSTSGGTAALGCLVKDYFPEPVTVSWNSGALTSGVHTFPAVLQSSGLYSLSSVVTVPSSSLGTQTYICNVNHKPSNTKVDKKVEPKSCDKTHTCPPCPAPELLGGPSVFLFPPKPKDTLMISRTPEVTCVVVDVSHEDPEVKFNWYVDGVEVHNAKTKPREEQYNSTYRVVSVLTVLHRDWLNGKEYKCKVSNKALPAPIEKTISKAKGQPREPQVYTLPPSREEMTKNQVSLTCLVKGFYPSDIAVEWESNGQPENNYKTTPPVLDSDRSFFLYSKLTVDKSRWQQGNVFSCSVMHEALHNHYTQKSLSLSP
light: B1 light
notes: copies: 2 + 2

- biacore IC binding (relative, SG1 = 1.00) [1]: 1.43 relative to SG1
- celluar uptake (labelled human latent myostatin taken up as antigen-antibody complex) [2]: 1.45 relative to SG1 = 1.00
B14: M103205H795-P1488m/M103202L889-SK1 (antibody, human IgG1, kappa, name in EU numbering)
heavy: not shown
light: B1 light
notes: copies: 2 + 2

- biacore IC binding (relative, SG1 = 1.00) [1]: 1.4 relative to SG1
- celluar uptake (labelled human latent myostatin taken up as antigen-antibody complex) [2]: 3.66 relative to SG1 = 1.00
B16: M103205H795-P1524m/M103202L889-SK1 (antibody, human IgG1, kappa, name in EU numbering)
heavy: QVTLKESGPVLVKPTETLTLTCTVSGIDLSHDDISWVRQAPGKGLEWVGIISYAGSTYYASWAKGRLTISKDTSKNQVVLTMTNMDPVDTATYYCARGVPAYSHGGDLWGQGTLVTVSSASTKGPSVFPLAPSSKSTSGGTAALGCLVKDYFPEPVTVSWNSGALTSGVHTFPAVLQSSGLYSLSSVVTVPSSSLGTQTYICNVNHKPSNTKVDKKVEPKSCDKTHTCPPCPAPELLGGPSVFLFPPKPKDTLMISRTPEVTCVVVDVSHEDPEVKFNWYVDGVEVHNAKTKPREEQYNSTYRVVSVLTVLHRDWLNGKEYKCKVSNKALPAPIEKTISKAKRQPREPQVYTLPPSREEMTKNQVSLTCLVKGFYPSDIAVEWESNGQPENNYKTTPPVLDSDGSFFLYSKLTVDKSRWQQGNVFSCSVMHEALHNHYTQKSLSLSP
light: B1 light
